Measured values: patent US20150232507A1 (ERA BIOTECH S A, published 2015)

What was measured:
Test in all cases: cell-based or functional assay
[1] = biological target: T1, G1^C: Gp41.1^C-[C-extein]linker-Trx-EFRSHHHHHH fusion protein
T1 chain: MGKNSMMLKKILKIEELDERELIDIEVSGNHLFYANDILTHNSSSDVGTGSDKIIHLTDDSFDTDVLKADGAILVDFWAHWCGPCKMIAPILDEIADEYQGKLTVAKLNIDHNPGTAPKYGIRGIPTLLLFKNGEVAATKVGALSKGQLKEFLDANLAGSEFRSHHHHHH

[2] = biological target: T1, G1^C: …
[3] = biological target: T1, G1^C: …
[4] = biological target: T2, N1^C: NrdJ1^C-[C-extein]linker-Trx-EFRSHHHHHH fusion protein
T2 chain: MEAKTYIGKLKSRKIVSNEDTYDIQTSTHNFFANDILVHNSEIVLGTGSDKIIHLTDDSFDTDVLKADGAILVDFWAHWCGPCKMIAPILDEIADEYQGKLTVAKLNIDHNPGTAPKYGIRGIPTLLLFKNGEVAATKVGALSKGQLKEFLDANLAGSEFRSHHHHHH

[5] = biological target: T2, N1^C: …
[6] = biological target: T2, N1^C: …
[7] = biological target: T3, G8^C: Gp41.8^C-[C-extein]linker-Trx-EFRSHHHHHH fusion protein
T3 chain: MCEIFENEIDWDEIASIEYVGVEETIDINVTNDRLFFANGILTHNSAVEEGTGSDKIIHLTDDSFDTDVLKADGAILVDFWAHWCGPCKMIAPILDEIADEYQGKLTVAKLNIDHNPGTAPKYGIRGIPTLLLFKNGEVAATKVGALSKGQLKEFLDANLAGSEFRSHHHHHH

[8] = biological target: T3, G8^C: …
[9] = biological target: T3, G8^C: …
[10] = biological target: T4, I1^C: IMPDH1^C-[C-extein]linker-Trx-EFRSHHHHHH fusion protein
T4 chain: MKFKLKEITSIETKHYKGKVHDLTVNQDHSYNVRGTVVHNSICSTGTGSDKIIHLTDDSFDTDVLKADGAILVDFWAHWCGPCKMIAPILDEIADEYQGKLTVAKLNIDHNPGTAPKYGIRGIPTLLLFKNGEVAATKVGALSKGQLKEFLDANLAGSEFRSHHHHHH

[11] = biological target: T4, I1^C: …
[12] = biological target: T4, I1^C: …

B1: G1^N: StreptagII-gpD-linker[N-extein]-Gp41.1^N-GGHHHHHH fusion protein (other)
chain: MASWSHPQFEKASKETFTHYQPQGNSDPAHTATAPGGLSAKAPAMTPLMLDTSSRKLVAWDGTTDGAAVGILAVAADQTSTTLTFYKSGTFRYEDVLWPEAASDETKKRTAFAGTAISIVGSTRSGYCLDLKTQVQTPQGMKEISNIQVGDLVLSNTGYNEVLNVFPKSKKKSYKITLEDGKEIICSEEHLFPTQTGEMNISGGLKEGMCLYVKEGGHHHHHH
splice product formation at 5 minutes, 25 °C [1]: ~90%
trans-splicing activity in 4 M urea after 1 hour, relative to optimized conditions [1]: ~50%
trans-splicing activity, fold faster than Npu DnaE, 12 °C [1]: 6 fold
trans-splicing activity, fold faster than Npu DnaE, 25 °C [1]: 15 fold
trans-splicing activity, fold faster than Npu DnaE, 37 °C [1]: 10 fold
trans-splicing speed, fold faster than Npu DnaE, 25 °C [1]: 31 fold
trans-splicing first order rate constant k, 25 °C [2]: 0.057 s⁻¹
trans-splicing t1/2, 25 °C [2]: 0.2 min

B2: G1^N(C1A): StreptagII-gpD-linker[N-extein]-Gp41.1^N(C1A)-GGHHHHHH fusion protein (other)
chain: MASWSHPQFEKASKETFTHYQPQGNSDPAHTATAPGGLSAKAPAMTPLMLDTSSRKLVAWDGTTDGAAVGILAVAADQTSTTLTFYKSGTFRYEDVLWPEAASDETKKRTAFAGTAISIVGSTRSGYALDLKTQVQTPQGMKEISNIQVGDLVLSNTGYNEVLNVFPKSKKKSYKITLEDGKEIICSEEHLFPTQTGEMNISGGLKEGMCLYVKEGGHHHHHH
C-terminal cleavage k, 25 °C [3]: 0.000595 s⁻¹
C-terminal cleavage t1/2, 25 °C [3]: 19.4 min

B3: N1^N: StreptagII-gpD-linker[N-extein]-NrdJ1^N-GGHHHHHH fusion protein (other)
chain: MASWSHPQFEKASKETFTHYQPQGNSDPAHTATAPGGLSAKAPAMTPLMLDTSSRKLVAWDGTTDGAAVGILAVAADQTSTTLTFYKSGTFRYEDVLWPEAASDETKKRTAFAGTAISIVGSGTNPCCLVGSSEIITRNYGKTTIKEVVEIFDNDKNIQVLAFNTHTDNIEWAPIKAAQLTRPNAELVELEINTLHGVKTIRCTPDHPVYTKNRDYVRADELTDDDELVVAIGGHHHHHH
splice product formation at 5 minutes, 25 °C [4]: ~90%
trans-splicing speed, fold faster than Npu DnaE, 25 °C [4]: 9 fold
trans-splicing first order rate constant k, 25 °C [5]: 0.062 s⁻¹
trans-splicing t1/2, 25 °C [5]: 0.333 min

B4: N1^N(C1A): StreptagII-gpD-linker[N-extein]-NrdJ1^N(C1A)-GGHHHHHH fusion protein (other)
chain: MASWSHPQFEKASKETFTHYQPQGNSDPAHTATAPGGLSAKAPAMTPLMLDTSSRKLVAWDGTTDGAAVGILAVAADQTSTTLTFYKSGTFRYEDVLWPEAASDETKKRTAFAGTAISIVGSGTNPCALVGSSEIITRNYGKTTIKEVVEIFDNDKNIQVLAFNTHTDNIEWAPIKAAQLTRPNAELVELEINTLHGVKTIRCTPDHPVYTKNRDYVRADELTDDDELVVAIGGHHHHHH
C-terminal cleavage k, 25 °C [6]: 0.00027 s⁻¹
C-terminal cleavage t1/2, 25 °C [6]: 43 min

B5: G8^N: StreptagII-gpD-linker[N-extein]-Gp41.8^N-GGHHHHHH fusion protein (other)
chain: MASWSHPQFEKASKETFTHYQPQGNSDPAHTATAPGGLSAKAPAMTPLMLDTSSRKLVAWDGTTDGAAVGILAVAADQTSTTLTFYKSGTFRYEDVLWPEAASDETKKRTAFAGTAISIVGSSQLNRCLSLDTMVVTNGKAIEIRDVKVGDWLESECGPVQVTEVLPIIKQPVFEIVLKSGKKIRVSANHKFPTKDGLKTINSGLKVGDFLRSRAKGGHHHHHH
splice product formation at 5 minutes, 25 °C [7]: ~90%
trans-splicing speed, fold faster than Npu DnaE, 25 °C [7]: 6 fold
trans-splicing first order rate constant k, 25 °C [8]: 0.017 s⁻¹
trans-splicing t1/2, 25 °C [8]: 0.667 min

B6: G8^N(C1A): StreptagII-gpD-linker[N-extein]-Gp41.8^N(C1A)-GGHHHHHH fusion protein (other)
chain: MASWSHPQFEKASKETFTHYQPQGNSDPAHTATAPGGLSAKAPAMTPLMLDTSSRKLVAWDGTTDGAAVGILAVAADQTSTTLTFYKSGTFRYEDVLWPEAASDETKKRTAFAGTAISIVGSSQLNRALSLDTMVVTNGKAIEIRDVKVGDWLESECGPVQVTEVLPIIKQPVFEIVLKSGKKIRVSANHKFPTKDGLKTINSGLKVGDFLRSRAKGGHHHHHH
C-terminal cleavage k, 25 °C [9]: 9.5e-05 s⁻¹
C-terminal cleavage t1/2, 25 °C [9]: 122 min

B7: I1^N: StreptagII-gpD-linker[N-extein]-IMPDH1^N-GGHHHHHH fusion protein (other)
chain: MASWSHPQFEKASKETFTHYQPQGNSDPAHTATAPGGLSAKAPAMTPLMLDTSSRKLVAWDGTTDGAAVGILAVAADQTSTTLTFYKSGTFRYEDVLWPEAASDETKKRTAFAGTAISIVGSGIGGGCFVPGTLVNTENGLKKIEEIKVGDKVFSHTGKLQEVVDTLIFDRDEEIISINGIDCTKNHEFYVIDKENANRVNEDNIHLFARWVHAEELDMKKHLLIELEGGHHHHHH
splice product formation at 5 minutes, 25 °C [10]: ~90%
trans-splicing speed, fold faster than Npu DnaE, 25 °C [10]: 7 fold
trans-splicing first order rate constant k, 25 °C [11]: 0.02 s⁻¹
trans-splicing t1/2, 25 °C [11]: 0.567 min

B8: I1^N(C1A): StreptagII-gpD-linker[N-extein]-IMPDH1^N(C1A)-GGHHHHHH fusion protein (other)
chain: MASWSHPQFEKASKETFTHYQPQGNSDPAHTATAPGGLSAKAPAMTPLMLDTSSRKLVAWDGTTDGAAVGILAVAADQTSTTLTFYKSGTFRYEDVLWPEAASDETKKRTAFAGTAISIVGSGIGGGAFVPGTLVNTENGLKKIEEIKVGDKVFSHTGKLQEVVDTLIFDRDEEIISINGIDCTKNHEFYVIDKENANRVNEDNIHLFARWVHAEELDMKKHLLIELEGGHHHHHH
C-terminal cleavage k, 25 °C [12]: 0.000365 s⁻¹
C-terminal cleavage t1/2, 25 °C [12]: 31.6 min
